± gives the uncertainty stated by the source.
Tested on: HEK293T
Assay: plasma membrane surface immunostaining intensity (anti-HA, deep receptor scanning) (arbitrary fluorescence units); higher = higher plasma membrane expression

Row | Sequence | plasma membrane surface immunostaining intensity (GPCR class: A) | other results
1 | MRGFNLLLFWGCCVMHSWEGHIRPTRKPNTKGNNCRDSTLCPAYATCTNTVDSYYCACKQGFLSSNGQNHFKDPGVRCKDIDECSQSPQPCGPNSSCKNLSGRYKCSCLDGFSSPTGNDWVPGKPGNFSCTDINECLTSSVCPEHSDCVNSMGSYSCSCQVGFISRNSTCEDVDECADPRACPEHATCNNTVGNYSCFCNPGFESSSGHLSFQGLKASCEDIDECTEMCPINSTCTNTPGSYFCTCHPGFAPSNGQLNFTDQGVECRDIDECRQDPSTCGPNSICTNALGSYSCGCIAGFHPNPEGSQKDGNFSCQRVLFKCKEDVIPDNKQIQQCQEGTAVKPAYVSFCAQINNIFSVLDKVCENKTTVVSLKNTTESFVPVLKQISTWTKFTKEETSSLATVFLESVESMTLASFWKPSANITPAVRTEYLDIESKVINKECSEENVTLDLVAKGDKMKIGCSTIEESESTETTGVAFVSFVGMESVLNERFFKDHQAPLTTSEIKLKMNSRVVGGIMTGEKKDGFSDPIIYTLENIQPKQKFERPICVSWSTDVKGGRWTSFGCVILEASETYTICSCNQMANLAVIMASGELTMDFSLYIISHVGIIISLVCLVLAIATFLLCRSIRNHNTYLHLHLCVCLLLAKTLFLAGIHKTDNKMGCAIIAGFLHYLFLACFFWMLVEAVILFLMVRNLKVVNYFSSRNIKMLHICAFGYGLPMLVVVISASVQPQGYGMHNRCWLNTETGFIWSFLGPVCTVIVINSLLLTWTLWILRQRLSSVNAEVSTLKDTRLLTFKAFAQLFILGCSWVLGIFQIGPVAGVMAYLFTIINSLQGAFIFLIHCLLNGQVREEYKRWITGKTKPSSQSQTSRILLSSMPSASKTG [ADGRE1] | – | plasma membrane surface immunostaining intensity (GPCR class: B): 948 ± 160
2 | MNPPSGPRVPPSPTQEPSCMATPAPPSWWDSSQSSISSLGRLPSISPTAPGTWAAAWVPLPTVDVPDHAHYTLGTVILLVGLTGMLGNLTVIYTFCRSRSLRTPANMFIINLAVSDFLMSFTQAPVFFTSSLYKQWLFGETGCEFYAFCGALFGISSMITLTAIALDRYLVITRPLATFGVASKRRAAFVLLGVWLYALAWSLPPFFGWSAYVPEGLLTSCSWDYMSFTPAVRAYTMLLCCFVFFLPLLIIIYCYIFIFRAIRETGRALQTFGACKGNGESLWQRQRLQSECKMAKIMLLVILLFVLSWAPYSAVALVAFAGYAHVLTPYMSSVPAVIAKASAIHNPIIYAITHPKYRVAIAQHLPCLGVLLGVSRRHSRPYPSYRSTHRSTLTSHTSNLSWISIRRRQESLGSESEVGWTHMEAAAVWGAAQQANGRSLYGQGLEDLEAKAPPRPQGHEAETPGKTKGLIPSQDPRM [OPN4] | 519 ± 36 | –
3 | MASFSAETNSTDLLSQPWNEPPVILSMVILSLTFLLGLPGNGLVLWVAGLKMQRTVNTIWFLHLTLADLLCCLSLPFSLAHLALQGQWPYGRFLCKLIPSIIVLNMFASVFLLTAISLDRCLVVFKPIWCQNHRNVGMACSICGCIWVVAFVMCIPVFVYREIFTTDNHNRCGYKFGLSSSLDYPDFYGDPLENRSLENIVQPPGEMNDRLDPSSFQTNDHPWTVPTVFQPQTFQRPSADSLPRGSARLTSQNLYSNVFKPADVVSPKIPSGFPIEDHETSPLDNSDAFLSTHLKLFPSASSNSFYESELPQGFQDYYNLGQFTDDDQVPTPLVAITITRLVVGFLLPSVIMIACYSFIVFRMQRGRFAKSQSKTFRVAVVVVAVFLVCWTPYHIFGVLSLLTDPETPLGKTLMSWDHVCIALASANSCFNPFLYALLGKDFRKKARQSIQGILEAAFSEELTRSTHCPSNNVISERNSTTV [C3AR1] | 327 ± 41 | –
4 | MGENQTMVTEFLLLGFLLGPRIQMLLFGLFSLFYIFTLLGNGAILGLISLDSRLHTPMYFFLSHLAVVDIAYTRNTVPQMLANLLHPAKPISFAGCMTQTFLCLSFGHSECLLLVLMSYDRYVAICHPLRYSVIMTWRVCITLAVTSWTCGSLLALAHVVLILRLPFSGPHEINHFFCEILSVLRLACADTWLNQVVIFAACVFFLVGPPSLVLVSYSHILAAILRIQSGEGRRKAFSTCSSHLCVVGLFFGSAIIMYMAPKSRHPEEQQKVFFLFYSFFNPTLNPLIYSLRNGEVKGALRRALGKESHS [OR2A1] | – | plasma membrane surface immunostaining intensity (GPCR class: A (Olfactory)): 106 ± 11
5 | MDSFNYTTPDYGHYDDKDTLDLNTPVDKTSNTLRVPDILALVIFAVVFLVGVLGNALVVWVTAFEAKRTINAIWFLNLAVADFLSCLALPILFTSIVQHHHWPFGGAACSILPSLILLNMYASILLLATISADRFLLVFKPIWCQNFRGAGLAWIACAVAWGLALLLTIPSFLYRVVREEYFPPKVLCGVDYSHDKRRERAVAIVRLVLGFLWPLLTLTICYTFILLRTWSRRATRSTKTLKVVVAVVASFFIFWLPYQVTGIMMSFLEPSSPTFLLLKKLDSLCVSFAYINCCINPIIYVVAGQGFQGRLRKSLPSLLRNVLTEESVVRESKSFTRSTVDTMAQKTQAV [C5AR1] | 6196 ± 24 | –
6 | MSANATLKPLCPILEQMSRLQSHSNTSIRYIDHAAVLLHGLASLLGLVENGVILFVVGCRMRQTVVTTWVLHLALSDLLASASLPFFTYFLAVGHSWELGTTFCKLHSSIFFLNMFASGFLLSAISLDRCLQVVRPVWAQNHRTVAAAHKVCLVLWALAVLNTVPYFVFRDTISRLDGRIMCYYNVLLLNPGPDRDATCNSRQVALAVSKFLLAFLVPLAIIASSHAAVSLRLQHRGRRRPGRFVRLVAAVVAAFALCWGPYHVFSLLEARAHANPGLRPLVWRGLPFVTSLAFFNSVANPVLYVLTCPDMLRKLRRSLRTVLESVLVDDSELGGAGSSRRRRTSSTARSASPLALCSRPEEPRGPARLLGWLLGSCAASPQTGPLNRALSSTSS [PTGDR2] | 6413 ± 49 | –
7 | MTAAIRRQRELSILPKVTLEAMNTTVMQGFNRSERCPRDTRIVQLVFPALYTVVFLTGILLNTLALWVFVHIPSSSTFIIYLKNTLVADLIMTLMLPFKILSDSHLAPWQLRAFVCRFSSVIFYETMYVGIVLLGLIAFDRFLKIIRPLRNIFLKKPVFAKTVSIFIWFFLFFISLPNTILSNKEATPSSVKKCASLKGPLGLKWHQMVNNICQFIFWTVFILMLVFYVVIAKKVYDSYRKSKSKDRKNNKKLEGKVFVVVAVFFVCFAPFHFARVPYTHSQTNNKTDCRLQNQLFIAKETTLFLAATNICMDPLIYIFLCKKFTEKLPCMQGRKTTASSQENHSSQTDNITLG [P2RY13] | 239 ± 12 | –
8 | MQRANHSTVTQFILVGFSVFPHLQLMLFLLFLLMYLFTLLGNLLIMATVWSERSLHTPMYLFLCALSVSEILYTVAIIPRMLADLLSTQRSIAFLACASQMFFSFSFGFTHSFLLTVMGYDRYVAICHPLRYNVLMSPRGCACLVGCSWAGGLVMGMVVTSAIFHLAFCGHKEIHHFACHVPPLLKLACGDDVLVVAKGVGLVCITALLGCFLLILLSYAFIVAAILKIPSAEGRNKAFSTCASHLTVVVVHYGFASVIYLKPKSPQSLEGDTLMGITYTVLTPFLSPIIFSLRNKELKVAMKKTFFSKLYPEKNVMM [OR10H1] | – | plasma membrane surface immunostaining intensity (GPCR class: A (Olfactory)): 121 ± 17
9 | MARPDPSAPPSLLLLLLAQLVGRAAAASKAPVCQEITVPMCRGIGYNLTHMPNQFNHDTQDEAGLEVHQFWPLVEIQCSPDLRFFLCSMYTPICLPDYHKPLPPCRSVCERAKAGCSPLMRQYGFAWPERMSCDRLPVLGRDAEVLCMDYNRSEATTAPPRPFPAKPTLPGPPGAPASGGECPAGGPFVCKCREPFVPILKESHPLYNKVRTGQVPNCAVPCYQPSFSADERTFATFWIGLWSVLCFISTSTTVATFLIDMERFRYPERPIIFLSACYLCVSLGFLVRLVVGHASVACSREHNHIHYETTGPALCTIVFLLVYFFGMASSIWWVILSLTWFLAAGMKWGNEAIAGYAQYFHLAAWLIPSVKSITALALSSVDGDPVAGICYVGNQNLNSLRGFVLGPLVLYLLVGTLFLLAGFVSLFRIRSVIKQGGTKTDKLEKLMIRIGIFTLLYTVPASIVVACYLYEQHYRESWEAALTCACPGHDTGQPRAKPEYWVLMLKYFMCLVVGITSGVWIWSGKTVESWRRFTSRCCCRPRRGHKSGGAMAAGDYPEASAALTGRTGPPGPAATYHKQVSLSHV [FZD5] | – | plasma membrane surface immunostaining intensity (GPCR class: F): 4020 ± 200
10 | MLRNGSIVTEFILVGFQQSSTSTRALLFALFLALYSLTMAMNGLIIFITSWTDPKLNSPMYFFLGHLSLLDVCFITTTIPQMLIHLVVRDHIVSFVCCMTQMYFVFCVGVAECILLAFMAYDRYVAICYPLNYVPIISQKVCVRLVGTAWFFGLINGIFLEYISFREPFRRDNHIESFFCEAPIVIGLSCGDPQFSLWAIFADAIVVILSPMVLTVTSYVHILATILSKASSSGRGKTFSTCASHLTVVIFLYTSAMFSYMNPHSTHGPDKDKPFSLLYTIITPMCNPIIYSFRNKEIKEAMVRALGRTRLAQPQSV [OR10AD1] | – | plasma membrane surface immunostaining intensity (GPCR class: A (Olfactory)): 326 ± 140
11 | MVNNFSQAEAVELCYKNVNESCIKTPYSPGPRSILYAVLGFGAVLAAFGNLLVMIAILHFKQLHTPTNFLIASLACADFLVGVTVMPFSTVRSVESCWYFGDSYCKFHTCFDTSFCFASLFHLCCISVDRYIAVTDPLTYPTKFTVSVSGICIVLSWFFSVTYSFSIFYTGANEEGIEELVVALTCVGGCQAPLNQNWVLLCFLLFFIPNVAMVFIYSKIFLVAKHQARKIESTASQAQSSSESYKERVAKRERKAAKTLGIAMAAFLVSWLPYLVDAVIDAYMNFITPPYVYEILVWCVYYNSAMNPLIYAFFYQWFGKAIKLIVSGKVLRTDSSTTNLFSEEVETD [TAAR9] | 136 ± 34 | –
12 | MPANFTEGSFDSSGTGQTLDSSPVACTETVTFTEVVEGKEWGSFYYSFKTEQLITLWVLFVFTIVGNSVVLFSTWRRKKKSRMTFFVTQLAITDSFTGLVNILTDINWRFTGDFTAPDLVCRVVRYLQVVLLYASTYVLVSLSIDRYHAIVYPMKFLQGEKQARVLIVIAWSLSFLFSIPTLIIFGKRTLSNGEVQCWALWPDDSYWTPYMTIVAFLVYFIPLTIISIMYGIVIRTIWIKSKTYETVISNCSDGKLCSSYNRGLISKAKIKAIKYSIIIILAFICCWSPYFLFDILDNFNLLPDTQERFYASVIIQNLPALNSAINPLIYCVFSSSISFPCREQRSQDSRMTFRERTERHEMQILSKPEFI [NPSR1] | 457 ± 42 | –
13 | MLGIMAWNATCKNWLAAEAALEKYYLSIFYGIEFVVGVLGNTIVVYGYIFSLKNWNSSNIYLFNLSVSDLAFLCTLPMLIRSYANGNWIYGDVLCISNRYVLHANLYTSILFLTFISIDRYLIIKYPFREHLLQKKEFAILISLAIWVLVTLELLPILPLINPVITDNGTTCNDFASSGDPNYNLIYSMCLTLLGFLIPLFVMCFFYYKIALFLKQRNRQVATALPLEKPLNLVIMAVVIFSVLFTPYHVMRNVRIASRLGSWKQYQCTQVVINSFYIVTRPLAFLNSVINPVFYFLLGDHFRDMLMNQLRHNFKSLTSFSRWAHELLLSFREK [SUCNR1] | 528 ± 61 | –
14 | MEKANETSPVMGFVLLRLSAHPELEKTFFVLILLMYLVILLGNGVLILVTILDSRLHTPMYFFLGNLSFLDICFTTSSVPLVLDSFLTPQETISFSACAVQMALSFAMAGTECLLLSMMAFDRYVAICNPLRYSVIMSKAAYMPMAASSWAIGGAASVVHTSLAIQLPFCGDNVINHFTCEILAVLKLACADISINVISMEVTNVIFLGVPVLFISFSYVFIITTILRIPSAEGRKKVFSTCSAHLTVVIVFYGTLFFMYGKPKSKDSMGADKEDLSDKLIPLFYGVVTPMLNPIIYSLRNKDVKAAVRRLLRPKGFTQ [OR2S2] | – | plasma membrane surface immunostaining intensity (GPCR class: A (Olfactory)): 120 ± 24
